This is an account of results in US11433139B2, “Peptide vaccines against interleukin-31” (Zoetis Services LLC, priority 2018, dated 2022).

The subject of experiment [1] is mouse anti equine IL-31 serum. Description: Bio-layer interferometry binding of mouse serum to immobilized equine IL-31 mimotopes. The text has this: Mice were immunized with full length equine IL-31 (SEQ ID NO: 165; Equine_IL-31), the corresponding nucleotide sequence for which is (SEQ ID NO: 166; […]) conjugated to CRM-197 like the method described in section 1.6 of this application. Biotin conjugated peptides representing three epitope regions described herein were designed for use with a bio-layer interferometry binding assay (Octet, ForteBio). Description of these peptides are described in FIG. 21A. Each peptide contains an N terminal biotin with a three-amino acid spacer sequence (GSG) annotated with bold underlined text in the figure. The 15H05 mimotope includes two terminal cysteine residues (also highlighted in bold and underlined) to facilitate cyclization by a disulphide bond. […] Control mouse serum was from a mouse vaccinated with an unrelated protein. The response, described here as the amplitude of the signal following 120 seconds of antiserum association, is represented on the y axis of the figure. […] In addition, the ability of these IL-31 mimotopes to be recognized by those immune responses can be assessed through binding. […] Like presentation of mimotopes described herein which elicit immune responses to full length protein, this experiment describes a reciprocal validation of these epitopes where the immune response is validated from the protein against the mimotope.
A general note: Biolayer interferometry detects binding as a change in optical thickness at a sensor tip.

For experiment [2], the system named is feline IL-31. In words: Competition binding assessment using Biacore, feline IL-31 surface. The settings on record: sequential addition of 15H05 and 11E12, Biacore. The procedure: (§1) To further characterize the IL-31 epitopes bound by mAbs 15H05 and 11 E12, blocking experiments were performed using biacore where the surface containing the IL-31 protein was generated followed by sequential addition of antibodies. FIGS. 7A and 7B show the relative binding of each antibody to IL-31 following capture of 11E12 or 15H05. The columns labeled HBS-EP (assay buffer) indicate the maximum signal obtained from each antibody binding to the IL-31 surface alone without competition. […] The sensograms related to FIG. 7A show the disassociation kinetics of both antibodies are very slow on this newly formed biacore surface therefore no additional occupation of binding sites can occur with addition of the same antibody (data not shown).
Binding of additional antibody in the presence of the same antibody is a result of the increased off rate due to the poorer quality of the surface used. Increased off rates can be seen and compared to the KD values from newly formed feline IL-31 surfaces in FIG. 2.
Target sequence in this assay (as listed by the source): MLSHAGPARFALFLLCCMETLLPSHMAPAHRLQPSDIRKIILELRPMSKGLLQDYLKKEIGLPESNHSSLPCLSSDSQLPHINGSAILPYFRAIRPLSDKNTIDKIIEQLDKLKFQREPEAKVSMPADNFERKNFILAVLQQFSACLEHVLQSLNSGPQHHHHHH

The subject of experiment [3] is feline 15H05 mutant IL-31. Description: Biacore binding, single test concentration of antibody, feline 15H05 mutant IL-31 surface. The procedure: (§2) For the indirect ELISA, binding (ELISA OD) to wildtype feline IL-31 and a feline IL-31 15H05 mutant which had mutations in the monoclonal antibody 15H05 epitope region was assessed. To confirm binding, biacore analysis was performed using canine, feline, equine, human, the feline 15H05 mutant, and feline 11E12 mutant IL-31 proteins as surfaces and a single test concentration of antibody. The feline IL-31 11E12 mutant had mutations in the monoclonal antibody 11E12 epitope region.
(§3) For the indirect ELISA method, antibody binding to wildtype and feline IL-31 15H05 mutant proteins was assessed. […] In comparison, the 11E12 antibody bound to the wild-type feline IL-31 and its binding was not impacted by the mutations in the 15H05 epitope region as evidenced by the data in FIG. 4. To confirm binding, biacore analysis was performed using canine, feline, equine, human, feline 15H05 mutant, and feline 11E12 mutant IL-31 proteins as surfaces and a single test concentration of antibody. Similar to ELISA observations, all antibodies tested bound to wildtype feline IL-31. In agreement with the data described above in this section, mouse antibodies 11 E12 and 15H05 both bound to canine and feline IL-31 surfaces. […] From this group of nine fully canine antibodies, only ZIL1 and ZIL9 cross-reacted with equine IL-31. Of note, antibody 15H05 was the only one of all assayed herein that bound to canine, feline, and equine IL-31 indicating some level of epitope conservation across the three species. In contrast, none of the antibodies described herein bound to human IL-31. Additional biacore surfaces were used to verify ELISA observations showing differential binding of antibodies to wildtype feline IL-31 and two proteins with mutations in the 15H05 (15H05 mutant) or 11 E12 (11E12 mutant) epitopes. […] Differing results can be attributed to differences in the two assay methodologies.
For orientation: Surface plasmon resonance follows binding to a sensor surface in real time, without labels.

For experiment [4], the system named is feline IL-31. Description: Inhibition of feline IL-31 induced pSTAT3 signaling in feline FCWF4 macrophage-like cells. It is filed as cell-based. The settings on record: 0.2 μg/mL feline IL-31, pSTAT3, FCWF4 cells (FIG. 3). Here is the method:
(§4) To identify candidates with inhibitory activity, antibodies were assessed for their ability to affect IL-31-mediated STAT3 phosphorylation in either a canine or feline cell-based assay. STAT3 phosphorylation was determined in canine DH-82 (ATCC® CRL-10389™) or feline FCWF4 macrophage-like cells (ATCC CRL-2787). DH82 and FCWF4 cells were primed with canine interferon gamma (R&D Systems, Minneapolis, Minn.) at 10 ng/mL for 24 hours or feline interferon gamma (R&D Systems, Minneapolis, Minn.) at 125 ng/mL for 96 hours, respectively, to increase receptor expression. Both cell types were serum starved for 2 hours prior to IL-31 and mAb treatment. Using two independent methods, all candidate mAbs were evaluated for their ability to inhibit either 1 μg/mL canine or 0.2 μg/mL feline IL-31 induced STAT3 phosphorylation. […] To ensure complex formation, a one hour co-incubation of mAb and IL-31 cytokine prior to cell stimulation was completed. IL-31 cell stimulation was carried out for five minutes. STAT3 phosphorylation was measured using AlphaLISA SureFire ULTRA™ technology (Perkin Elmer, Waltham, Mass.). In the case where antibody concentration and purity are unknown, hybridoma supernatants were qualitatively measured for their ability to inhibit STAT3 phosphorylation following a 1 hour co-incubation with […] IL-31. The potency of individual monoclonal antibodies defined by their ability to inhibit IL-31 mediated STAT3 phosphorylation in these assays was considered the key selection criteria for further advancement of select antibodies. The term potency refers to the IC50 value calculated from these assays and is the concentration of the antibody where signaling induced by IL-31 is reduced to one half its maximal value.

The subject of experiment [5] is wildtype feline IL-31. Description: Indirect ELISA, binding to wildtype feline IL-31. Summed up: (§5)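 Wildtype or 15H05-epitope-mutant feline IL-31 coated directly onto plates as capture antigen (50 ng/well). Antibodies diluted in PBST, bound antibody detected with HRP-labelled secondary and TMB for 10 min at RT. Reaction stopped with 0.1 N HCl, then OD read at 450 nm.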

The test system of experiment [6] is canine IL-31. In words: Biacore binding, single test concentration of antibody, canine IL-31 surface. The procedure: as §2, §3
Chain of canine IL-31 (as listed by the source): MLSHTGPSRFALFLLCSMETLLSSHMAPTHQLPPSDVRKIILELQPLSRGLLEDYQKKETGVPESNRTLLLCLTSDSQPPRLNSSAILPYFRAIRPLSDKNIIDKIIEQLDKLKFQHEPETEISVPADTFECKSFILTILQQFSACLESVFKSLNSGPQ
Experiment [7] deals with wildtype feline IL-31. Description: Biacore binding, single test concentration of antibody, feline IL-31 surface. Here is the method:
as §2
For the indirect ELISA method, antibody binding to wildtype and feline IL-31 15H05 mutant proteins was assessed. […] In comparison, the 11E12 antibody bound to the wild-type feline IL-31 and its binding was not impacted by the mutations in the 15H05 epitope region as evidenced by the data in FIG. 4. To confirm binding, biacore analysis was performed using canine, feline, equine, human, feline 15H05 mutant, and feline 11E12 mutant IL-31 proteins as surfaces and a single test concentration of antibody. Similar to ELISA observations, all antibodies tested bound to wildtype feline IL-31. In agreement with the data described above in this section, mouse antibodies 11 E12 and 15H05 both bound to canine and feline IL-31 surfaces. […] From this group of nine fully canine antibodies, only ZIL1 and ZIL9 cross-reacted with equine IL-31. […]

For experiment [8], the system named is feline IL-31 11E12 mutant. In words: Indirect ELISA, binding to feline IL-31 11E12 mutant. The settings on record: compared with wildtype. The source says:
To determine the impact of mAbs 11E12 and 15H05 ability to bind these mutant forms of feline IL-31, an indirect ELISA was run using the mutants directly coated on to an immunoassay plate. […] The minor attenuation of mAb 15H05s binding to the 11E12 mutant is likely due to translational effects of the mutations from movement of the two front helices effecting the 15H05 binding site. The mutations designed to affect mAb 15H05s binding (mutant 15H05) show a complete loss of mAb 1505s ability to bind this IL-31 mutant by ELISA. Unlike the 11E12 mutant, the changes in the random coil recognized by mAb 15H05 (mutant 15H05) had no impact on mAb 11E12 binding further supporting the distinction between the two epitopes (FIG. 6C).

Experiment [9] relates to feline IL-31 15H05 mutant. In words: Indirect ELISA, binding to feline IL-31 15H05 mutant. The settings on record: compared with wildtype. Summed up: as §5
Chain of feline IL-31 15H05 mutant (as listed by the source, change not shown): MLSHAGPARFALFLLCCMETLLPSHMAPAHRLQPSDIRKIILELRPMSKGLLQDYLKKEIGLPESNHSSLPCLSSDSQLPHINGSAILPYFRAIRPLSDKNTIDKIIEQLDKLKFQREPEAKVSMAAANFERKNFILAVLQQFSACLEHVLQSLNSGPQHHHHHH
The subject of experiment [10] is canine IL-31. Description: Competition binding assessment using Biacore, canine IL-31 surface. The settings on record: sequential addition of 15H05 and 11E12, Biacore. The procedure: as §1
For experiment [11], the system named is feline 11E12 mutant IL-31. Description: Biacore binding, single test concentration of antibody, feline 11E12 mutant IL-31 surface. Here is the method: as §2, §3
Chain of feline 11E12 mutant IL-31 (as listed by the source, change not shown): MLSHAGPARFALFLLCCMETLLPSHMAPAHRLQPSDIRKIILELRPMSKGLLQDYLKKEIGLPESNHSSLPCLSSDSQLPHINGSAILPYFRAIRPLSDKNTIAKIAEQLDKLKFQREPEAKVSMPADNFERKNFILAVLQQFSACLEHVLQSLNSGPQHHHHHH
In experiment [12] the test system is feline IL-31. Description: Inhibition of feline IL-31 induced pSTAT3 signaling in canine DH-82 cells. The settings on record: feline IL-31, pSTAT3, canine DH82 cells (FIG. 3). In kind it is cell-based. Here is the method:
as §4
Target sequence in this assay (as listed by the source): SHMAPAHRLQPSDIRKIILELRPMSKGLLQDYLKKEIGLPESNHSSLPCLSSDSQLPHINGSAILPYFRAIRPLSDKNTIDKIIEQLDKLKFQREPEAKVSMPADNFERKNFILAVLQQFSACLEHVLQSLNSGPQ

Experiment [13] concerns the target feline IL-31. Description: Affinity of anti-IL-31 antibodies by surface plasmon resonance (Biacore), feline IL-31 surface. It is filed as binding. The settings on record: IL-31 conjugated to the surface (FIG. 2). A digest of the protocol:
(§6)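 IL-31 amine-coupled (NHS/EDC) at 5 μg/mL directly onto the SPR chip, quenched with ethanolamine; candidate mAbs flowed over as analyte. KD from 1:1 model fits; values below 1×10^−11 M are under the instrument's lower quantitation limit.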

Experiment [14] deals with canine IL-31. In words: Affinity of anti-IL-31 antibodies by surface plasmon resonance (Biacore), canine IL-31 surface. It is filed as binding. The conditions noted are these: IL-31 conjugated to the surface (FIG. 2). Summed up:
as §6

For the next experiment, the system named is equine IL-31. In words: Biacore binding, single test concentration of antibody, equine IL-31 surface. Here is the method:
as §2, §3

“Also recorded” adds a separate entry of the source. Where no end group is shown, it is not given here. The star is where a group is joined. Biotin = O=C1N[C@H]2[C@H](CS[C@H]2CCCCC(=O)*)N1

Chain of equine IL-31 (as listed by the source): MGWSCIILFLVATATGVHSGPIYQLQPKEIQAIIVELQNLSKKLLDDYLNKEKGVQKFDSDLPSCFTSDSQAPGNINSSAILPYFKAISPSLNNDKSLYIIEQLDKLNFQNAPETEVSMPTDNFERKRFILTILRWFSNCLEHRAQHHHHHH

In the case of “A helix: biotin GSG equine IL-31 mimotope N-GPIYQLQPKEIQAIIVELQNLSKK-C (Biotin-GSGGPIYQLQPKEIQAIIVELQNLSKK)”, in experiment [1] (biotin peptide on streptavidin pins, 120 seconds association), the “binding of mouse anti equine IL-31 serum to mimotope” value is on record as “recognized as relevant immunogens”. For the same molecule, the “binding of control mouse serum to mimotope” value in [1] (serum of a mouse vaccinated with an unrelated protein) is given as “some dilution dependent signal”.

B1: 11E12: mouse-derived anti IL-31 antibody previously described in U.S. Pat. No. 8,790,651; for comparison (antibody, V domains shown)
VH: QVQLQQSGAELVKPGASVKLSCKASGYTFKYYDINWVRQRPEQGLEWIGWIFPGDGGTKYNETFKGKATLTTDKSSSTAYMQLSRLTSEDSAVYFCARGGTSVIRDAMDYWGQGTSVTVSS
VL: DIVLTQSPASLAVSLGQRATISCRASESVDNYGISFMHWYQQKPGQPPKLLIYRASNLESGIPARFSGSGSRTDFTLTINPVETDDVATYYCQQSNKDPLTFGAGTKLELK
For B1, the “competition binding on feline IL-31” value with feline IL-31 [2] is given as “no overlap in the epitope recognized”. For the same molecule, the “binding to feline 15H05 mutant IL-31 (Biacore)” value in experiment [3] was “bound”. Further, the “potency (IC50) against feline IL-31 in feline FCWF4 cells” value in the experiment with feline IL-31 [4] was “comparable”. Moreover, in the experiment with wildtype feline IL-31 [5], the “binding to wildtype feline IL-31 (ELISA)” value is given as “bound; also recorded: capable of binding”. Also, in the experiment on canine IL-31 [6], the “binding to canine IL-31 (Biacore)” value is on record as “bound”. Further, the “binding to wildtype feline IL-31 (Biacore)” value in the experiment on wildtype feline IL-31 [7] is reported as “bound”. For the same molecule, in experiment [8], the “binding to feline IL-31 11E12 mutant (ELISA)” value is on record as “highly attenuated”. Also, the “binding to feline IL-31 15H05 mutant (ELISA)” value in experiment [9] is “not impacted; also recorded: no impact”. In addition, the “competition binding on canine IL-31” value in the experiment with canine IL-31 [10] was “capable of binding to canine IL-31 in the presence of one another”. Besides, the “binding to feline 11E12 mutant IL-31 (Biacore)” value in experiment [11] is “did not bind”. The “potency (IC50) against feline IL-31 in canine DH82 cells” value in the experiment with feline IL-31 [12] is “comparable”. In addition, the “affinity (KD) to feline IL-31” value at feline IL-31 [13] is “high affinity”. For the same molecule, at canine IL-31 [14], the “affinity (KD) to canine IL-31” value is “high affinity”.

B2: ZIL1: fully canine anti IL-31 antibody, VH SEQ ID NO: 75, VL SEQ ID NO: 77 (antibody, listed as Canis familiaris, V domains shown)
VH: EVQLVESGGDLVKPGGSLRLSCVASGFTFSSYGMSWVRQAPGKGLQWVAHINSGGSSTYYADAVKGRFTISRDNAKNTLYLQMNSLRAEDTAVYYCVEVYTTLAAFWTDNFDYWGQGTLVTVSS
VL: QSVLTQPTSVSGSLGQRVTISCSGSTNNIGILAATWYQQLPGKAPKVLVYSDGNRPSGVPDRFSGSKSGNSATLTITGLQAEDEADYYCQSFDTTLDAYVFGSGTQLTVL
Take B2: the “binding to feline 15H05 mutant IL-31 (Biacore)” value in [3] is listed as “decreased”. The “binding to wildtype feline IL-31 (ELISA)” value in the experiment on wildtype feline IL-31 [5] is given as “capable of binding; also recorded: retained binding”. In experiment [9], the “binding to feline IL-31 15H05 mutant (ELISA)” value is “binding was impacted; also recorded: decreased”. For the same molecule, the “binding to feline 11E12 mutant IL-31 (Biacore)” value in experiment [11] was “partially effected”. Also, in the experiment with equine IL-31, the “binding to equine IL-31 (Biacore)” value was “cross-reacted”.
